The nature of this data set: label from the status in PepcDB records.
In the case of “MQKKSIYVAYTGGTIGMQRSDNGYIPVSGHLQRQLALMPEFHRPEMPDFTIHEYAPLIDSSDMTPEDWQHIANDIQQNYDLYDGFVILHGTDTMAFTASALSFMLENLAKPVIITGSQIPLAELRSDGQTNLLNALYLAANHPVNEVSLFFNNQLFRGNRTTKAHADGFDAFASPNLSVLLEAGIHIRRQSSVVSPTSNGPLIVHRITPQPIGVVTIYPGISGAVVRNFLLQPVKALILRSYGVGNAPQKAELLDELKNASDRGIVVVNLTQCISGSVNMGGYATGNALAQAGVISGFDMTVEAALTKLHYLLSQSLSPNEIRQLMQQNLRGELTDTQ”, the protein production result is given as “not failed”.
Then “MSDNAKHHRDGHLVASGLQDRAARTPQHEGFLGPDRPWHLSFSLLLAGSFVLFSWWAFDYAGSGANKVILVLATVVGMFMAFNVGGNDVANSFGTSVGAGTLTMKQALLVAAIFEVSGAVIAGGDVTETIRSGIVDLSGVSVDPRDFMNIMLSALSAAALWLLFANRMGYPVSTTHSIIGGIVGAAIALGMVSGQGGAALRMVQWDQIGQIVVSWVLSPVLGGLVSYLLYGVIKRHILLYNEQAERRLTEIKKERIAHRERHKAAFDRLTEIQQIAYTGALARDAVAANRKDFDPDELESDYYRELHEIDAKTSSVDAFRALQNWVPLVAAAGSMIIVAMLLFKGFKHMHLGLTTMNNYFIIAMVGAAVWMATFIFAKTLRGESLSRSTFLMFSWMQVFTASGFAFSHGSNDIANAIGPFAAILDVLRTGAIEGNAAVPAAAMVTFGVALCAGLWFIGRRVIATVGHNLTTMHPASGFAAELSAAGVVMGATVLGLPVSSTHILIGAVLGVGIVNRSTNWGLMKPIVLAWVITLPSAAILASVGLVALRAIF”, with “failed”; and “MSAATPPFRDPQLPFAKRVDDLMSRLTLDEKTAFLHQFAPAVERLGIAPFRTGQEALHGVAWMGPATVFPQAVGLGATWNEELVRRVGEAVSKEARAMRARDDRVGLNVWSPTVNLLRHPLWGRNEEGYSEDPRLTSAVATAYTRGLRGDHPAYWRTAPVLKHWLAHNNETDRDTSSSSVRPRVLHEYDLRAFRDTVEAGAVAGVMPAYNLVNGRPNHLSPHLGRHLRTWTQEDLLVCSDAGAPSNLVDSEHYFDTHEEATAAALRAGVDSFTDHGTDSSKIVARVRGALEAGLLTEADVDAAVRRQLSVRFRLGEFDPENDPYSGAADTGADFDTPEHRALARDAAEQAVVLLKNDGVLPLAPETRVAVVGLLADECKLDWYSGTLIHRSTPLEGLYERFGADRVSFAEGVDRVRLRTADGRFLHVLPADDASAEAPGTEGALDPALLAGRTDLPPLTTDAVGTELALIDWGEGVLTLRASDGRYLSVAEDGFVRASADQPGGWVVQETFRLEPHDDGHLLRHTGTGRPVQVAADGVKVAAPDAAAGAAAGGAGSADAEVFELVVVERGEDAVTRVAAGADVVVVVAGNDPHINGRETEDRTTLRLPAQQERLLRAARAANPATVLALVSAYPYAVGVETLPAVLWTAHGGQAAGTALARILAGDVSPAGRLPQTWYSDDADLPGLLDYDVIGGRQTYLYFEGTPLFPFGHGLSYASFGYGDLTAQVRDGAVAVSFTVTNTGEVSADEVAQLYVRAEAPSVPRPRRELLAHRRLTLAPGASDRVSFEVPLSALAFWDVAHDRWRLEPGPYALLVGASSEDVRLTTTVTIDGEPAVPRPVGARGVQAVDFDEQSGTEIVDRTKAAGDAVAAVSGRTGELLYRDCDFGAGAAGVTVSVAGAGSVEVALDGGPAVAVLSPDAPTAGPYDYVELASAFTAEGVHDLRVTLRGALRLAHVGFSG”, with “failed”.
With “GEVKQIVGTPRDITQRKRREQMLKSRRRKIEALYRATSGLLSVETRDAVPGRIAEVLQEVFDFPLRHVGLVEGEMLVPKETVGEDLSRMPEPKAQPLSEDLVATRAIQAGEAVVVESTGGLENDLDYGTLSTLAGIPIGGHGAVVVGKEAGTFDALDLRLLEVLGGYGTLVLGRLEREERLVQAREEAEEAAQLKSAMLANMSHEVRTP”, the protein production entry was “failed”.
Then “MSIDVHPNNYAYQTNEPYKNFEAEDKLIGHLQDFVDGHQEDVKRIGSKMSEMKAKFEEKFDDLTNRLENMEGALVEINNALLNHQDDIQDQYTRIVNVGLVVDTVESHLDWKIEELEKKLNNSNEFSE”, with “not failed”.
For “MFIYGHMEKSERKNYLRESREVSYISLALLIISYIVISSIRFSFYLLSIMLIVSLLNFSIYFYMRYKIHARYHKNIDIQGYILEDNSWRYVLSLSVLLTIFIFLEYPFPFIRFYSFILIVNAFVITTWIVSLNGPIIGMLISRSDPLYEPFLYRAMELANAMNINVPDLYILDTRNRIANAFTVSRKESYVFITRLLMNILDVDEVTAVMAHEFAHIKLRHNLKTSIINFAVILFLINIALYGLTLDSFAGIMLPVISIIIYMFFTTFLLNYIKRRNEINADLTAIKYVNPDYLISALHKIENLEIFSRRISDIYLDHPSIDRRISIINRSRSS”, the protein production result is “failed”.
Then “MADCDSVTNSPLATATATLHTNRGDIKIALFGNHAPKTVANFVGLAQGTKDYSTQNASGGPSGPFYDGAVFHRVIQGFMIQGGDPTGTGRGGPGYKFADEFHPELQFDKPYLLAMANAGPGTNGSQFFITVGKTPHLNRRHTIFGEVIDAESQRVVEAISKTATDGNDRPTDPVVIESITIS”, with “not failed”; and “MGVIVPGNSSPVPALSAGRSTVEGYDPKLHDPFFDGVSQQLADKGFITAAADDLITWARTGSLMWMTFGLACCAVEMMQASMPRYDLERYGFAPRASPRQSDVMIVAGTLTNKMAPALRKVYDQMPEPRYVISMGSCANGGGYYYYSYSVVRGCDRVVPVDIYVPGCPPTAEALVYGVLQLQKKIRRTGTIER”, with “failed”; and “MDKLRGMETFIAVVECGSFTGAASRLGLSAVMVGKYIAQLESQLATRLLERNTRRQSLTDAGRVYFDEAKRVMEQVSIAESAVERLRLAPAGTLRVSAPTSFGASVIAPLTATFLQAWPAVRVELDLTNRMVDLVDEGVDLAIRIGEIHQEDLVARYLAPYRMVICAAPAYLARYGTPGTPEDLTDHLCLSHTVWTARNEWRLPGVEGEVRWKRDAVLRCNDGYALRQAAIAGAGLLMQPEVLLADALASGSLVRVLEAWTPQPRPVHLLWRQDRRPLPKLTQFIAHLQQGMADALTTTRASE”, with “failed”.
Regarding “PSYTVTVATGSQWFAGTDDYIYLSLVGSAGCSEKHLLDKPFYNDFERGAVDSYDVTVDEELGEIQLVRIEKRKYWLNDDWYLKYITLKTPHGDYIEFPCYRWITGDVEVVLRDGRAKLARDDQIHILKQHRRKELETRQKQYRWMEWNPGFPLSIDAKCHKDLPRDIQFDSEKGVDFVLNYSKAMENLFINRFMHMFQSSWNDFADFEKIFVKISNTISERVMNHWQEDLMFGYQFLNGCNPVLIRRCTELPEKLPVTTEMVECSLERQLSLEQEVQQGNIFIVDFELLDGIDANKTDPCTLQFLAAPICLLYKNLANKIVPIAIQLNQIPGDENPIFLPSDAKYDWLLAKIWVRSSDFHVHQTITHLLRTHLVSEVFGIAMYRQLPAVHPIFKLLVAHVRFTIAINTKAREQLICECGLFDKANATGGGGHVQMVQRAMKDLTYASLCFPEAIKARGMESKEDIPYYFYRDDGLLVWEAIRTFTAEVVDIYYEGDQVVEEDPELQDFVNDVYVYGMRGRKSSGFPKSVKSREQLSEYLTVVIFTASAQHAAVNFGQYDWCSWI”, the protein production entry is “failed”.
As to “MLAFFIFLSTLVLLFWRPWNLPIWVFSSLGAFFVFIFQLVDFKDACFVFSLVWDSSLTLVGLIILSFSLEALGFFDFIASKILYFSREKNQEKIYISTKKMMLFLLIFVFFLSAFFANDGAILIITPIIIALFSTLKDCKNHAFILSSFLLSLSFLCDASSNALVISNLTNIITANYFKIEFLEFAKNMFLPNFFVLLSTIVTVFVLYVRVLPKRLEFKLIKKEQISLKLFFLCIVFLFLFVISFFIGEIFNIKISFFALLWAGIFWLIILKIQGKKSIKILFEAPYGVLLFSFGLYMVVFALHKIGVSEILVKSYAFLMQDKSGIFGVALISAFGSSVFNNLPMVLIGDLALKEYFENFSFDSLMIYAHLLGVNIGPKLTPIGSLATLLWLGVLARKGINISFWQYCKFGFLITLPVLVFSLFALIV”, the protein production entry was “failed”.
Then “MQESWVEGVEDIRMLGSSLRNDSAAAGRACARTRAGPPAESRKKKVQAERRRREGVANAPTRALRFLRARRAWSPRLAAPGPLTLVAEGEEGRNRVPAAKHPCLRTMSPEPAPPEPQGVRSSLEEPSAEPLGQGSAAFLAGDYEVAAELFRSLLAGLAQPERGLCLQLGEALARAGRLPEAIGAFRGAALLGPLQPGELSELASGLARALGLREKRPPVAARPGGCASGTSGPVAPRDLLGCPRCGRLLYKPVTLSSGLTVCKRCVEQVPVRAQARRVNVVLSGLLERCFPAECRLRRLACQARGLQRQQQPEAALLRCQQALDMAPDDSSLLLLRAELYLTMKNYEQALQDADTVCQREPLLTKGHHIKAQILSGLGRNKEVLKEFIYCLALNPECNSAKKETQKVICEVFFSASENEQQNSAPSTQTGPKALCDGQMSPQNPLEEAGGHANADSPKTPSEKPDVPENTNSSVLYFILGLHCEEDKKALEGVIPAAPSGTLKRQLPSDAEDKELDVNTPEKIPKKDADSSPQRNANSLEEEPEFTIDATDFECALCMRLLFEPVTTPCGHTFCLKCLERCLDHAPHCPLCKDKLSELLATRNFNVTVLTEELIFRYLPDELSDRKRVYDEEMSELSHLTRDVPIFVCAMAFPTVPCPLHVFEPRYRLMIRRCMETGTKRFGMCLSAENAGISEYGCMLEIKDVRTFPDGSSVVDAVGISRFRVLSHRHRDGYNTADIEYLEDEKVEGAEFEELTALHESVYQQSVSWFASLQDHMKKQILSHFGSMPDREPEPQSNSSGPAWSWWILAVLPLERKAQLAILGMGSLKERLLAIRRILVIITRKLNSRQEMANNAQRDN”, with “failed”.
The result for “MPDYVYGDSMVLKLTLEYSSVLLVSLICCIIAFTSTYTVMPRLINKLKEANVVGNDIHKISKPIVAEMGGIGILFGFTIGMFIGMYCFPELQYELMVTLLVILLVGIVGMVDDLVRLSSREKLFLLFLAGLPIIWVAPPKVGILYMIMMPVAVSIASNLTNMLAGLNGIESGLGSIAMTALTASCIIMGKYDVSIITMAMLGALLAFLMYNRYPSRVFPGDVGTLIIGACIASVAFIGRVKIIALIVLLPNIIDGILKFYSAGVVERHKHRPTEIAEDGKLIAPPEGFNSLIRWILRRPMTEKKVVMIVWSIGMFFGFLGVLLAFILPLDPF” reads “failed”.
Then “VRPGDTEIDKLVALIDAADKVTLFCGSGTAGAHAEVMEFAEKIKSPVGHALRGKEWIQYDNPYDVGMSGLLGYGAAYEATNECDLLILLGTDFPYNAFLPTDVKIAQVDVRPERLGRRSKLDLAVWGDVRETLRCLIPRVKPKENRRFLDKMLKKHADALEGVIKAYTRKVEK”, with “failed”.
“MATTSAQTSPTEFGAGLPEAEDHSESAEPQSVEAEVIDERYADVWEKIQHARTIDVHDDAEVRKQRNFFDDKQKFMTQVTQRAEPFLYYIVSQLEARNMPLELALLPIVESGYNPLAQANGPAGLWQMIPATGRNFGLTINSAYDGRKDALASTDAVLDYLQHLYNTLGNDWINAVAGYNSGELVIKAAIDRNKAKGKPTDFWSLNIPARQVQTVPKWLAFIQIIREPSHYNLKVMPIANRPFLERLPAPNGVEISQIANAAGLTKAEFKTYNPGYRQSVIPSKGKYQIALPIENIGHYQENQHKLYAQKRYDSQTYIVKSGDSLGTIAAKFDLSVKELKQANNLTSDRLKIGQELTLLTPMAANDNEPEPVKTKANTDKSSTKANASSTKATSSKSTDKPVAKAKTYKVKSGDSLDKIARKSKVKLADLMKWNQLNAKSIIKPGQELKISELEHHHHHH”: the protein production entry is “failed”.
The result for “MSVPDNVYLIGTMNTADRSLAGLDIALRRRFDFVEMAPRPDKLTGVKVAEIDISAVLETMNRRIEVLLDREHRLGHAYFMSLENSNDLSRLSNIFRQQIIPLLQEYFFEDWQRIAWILNDHRKDERFRFIVPAPYSVDSLFGDTGQVAQDSKAWRMNEEAFHKPLEHHHHHH” reads “failed”.

These data come from a protein production outcome set (Wang et al. 2014).
